In paper PMC4082292, “Analysis of Y-P30/Dermcidin expression and properties of the Y-P30 peptide” (BMC Research Notes, 2014):

Experiments:
[1] = Oligomerization of synthetic Y-P30 and resistance to denaturing agents (SDS-PAGE/immunoblot); format: physicochemical; settings: immunoblot
Description: (§1) Y-P30 (aa 21–49) was synthesized as described previously [1]. For measuring stability of the peptide in vitro, Y-P30 was diluted in PBS (2 μg/μl) and incubated at room temperature over 24, 48 and 72 hours as well as 7 and 14 days. Additionally, the effect of different denaturing agents (urea, 8 M; dithiothreitol (DTT), 50 mM and 100 mM; iodoacetamide, 50 mM) was studied with incubation times of 2 and 12 hours. Thereafter, 4x sample loading dye (containing 5% beta-mercaptoethanol and 8% SDS) was added to 1x final concentration, all samples were boiled for 5 min at 95°C and subjected to SDS-PAGE with subsequent immunoblotting using a rabbit anti-Y-P30 antibody described previously [1, 2].

[2] = chemical stability; Y-P30 (aa 21-49) 2 μg/μl in PBS, room temperature, Eppendorf tube on bench shelf with regular light exposure; 24, 48, 72 h, 7 and 14 days; SDS-PAGE, immunoblot with rabbit anti-Y-P30; 13,5 μg per lane
Description: as §1

Question: Which results are given for “Y-P30: synthetic survival promoting peptide, aa 21–49 of the human Y-P30/dermcidin precursor (DPEAASAPGSGNPCHEASAAQKENAGEDP; Survival-promoting peptide; UniProt P81605 21-49, looked up, fragment)”?
Answer: apparent size of SDS-resistant multimer of the synthetic peptide ([1]; SDS-PAGE after boiling 5 min at 95°C in loading dye (5% beta-mercaptoethanol, 8% SDS at 4x), 10 μg per lane): 10–15 kDa; resistance of the 10-15 kDa oligomer species to denaturing agents ([1]; urea 8 M, DTT 50 mM and 100 mM, iodoacetamide 50 mM, incubation 2 h and 12 h (overnight), SDS-PAGE): resistant to urea, DTT and iodoacetamide; time for which the 15 kDA oligomer is stable [2]: at least 14 days
